According to US20180207276A1, “MODIFIED THERAPEUTIC AGENTS AND COMPOSITIONS THEREOF” (THE CALIFORNIA INSTITUTE FOR BIOMEDICAL RESEARCH, priority 2015, published 2018):
Positions of bridges follow the written chain, without caps; N, C: chain ends. Non-standard residues stand in square brackets, D forms with d. Primed or numbered codes have the meaning given here. Chains are numbered I, II in the order given. No end group written: not given here. *: point of attachment. FA2″ = lipid moiety from Br-FA2: acetamide, two PEG2-propionic acid units, Lys and octadecanedioic acid; X1 = O=C(O)CCCCCCCCCCCCCCCCC(=O)N[C@@H](CCCCNC(=O)CCOCCOCCNC(=O)CCOCCOCCNC(=O)C*)C(=O)O; X2 = O=C(O)CCCCCCCCCCCCCCCCC(=O)N[C@@H](CCCCn1cc(COCCOCCOCCOCCOCCNC(=O)C*)nn1)C(=O)O; X3 = CCCCCCCCCCCCCCCCCC(=O)N[C@@H](CCCCNC(=O)CCOCCOCCOCCOCCOCCNC(=O)C*)C(=O)O; X4 = CCCCCCCCCCCCCC(=O)N[C@@H](CCCCNC(=O)CCOCCOCCOCCOCCOCCNC(=O)C*)C(=O)O; FA183 = acetamide-PEG5-Lys-octadecanedioic acid; ALK = (PEG)5-bromo-alkyne, S-alkylating Cys; FA182 = acetamide-PEG5-Lys-myristic acid; FA186 = acetamide-PEG5-Lys-stearic acid; pGlu = O=C1CC[C@@H](C(=O)O)N1; FA155 = not defined here; FA2 = not defined here

Legend:
LGR7 = biological target: T1, LGR7 (Homo sapiens, UniProt Q9HBX9); assay: LGR7 CRE-Luc reporter gene assay (bioactivity of relaxin peptides); format: cell-based; conditions: HEK293T cells expressing LGR7 and CRE-Luc; for Activity, fold drop compared to relaxin: fold drop relative to relaxin; for EC50: 18 hours incubation, luciferase readout
T1 construct: expressed in transfected cells; host or cells: HEK293T cells stably expressing recombinant LGR7, transduced with CRE-Luc lentivirus
T1 sequence (Q9HBX9 1-757): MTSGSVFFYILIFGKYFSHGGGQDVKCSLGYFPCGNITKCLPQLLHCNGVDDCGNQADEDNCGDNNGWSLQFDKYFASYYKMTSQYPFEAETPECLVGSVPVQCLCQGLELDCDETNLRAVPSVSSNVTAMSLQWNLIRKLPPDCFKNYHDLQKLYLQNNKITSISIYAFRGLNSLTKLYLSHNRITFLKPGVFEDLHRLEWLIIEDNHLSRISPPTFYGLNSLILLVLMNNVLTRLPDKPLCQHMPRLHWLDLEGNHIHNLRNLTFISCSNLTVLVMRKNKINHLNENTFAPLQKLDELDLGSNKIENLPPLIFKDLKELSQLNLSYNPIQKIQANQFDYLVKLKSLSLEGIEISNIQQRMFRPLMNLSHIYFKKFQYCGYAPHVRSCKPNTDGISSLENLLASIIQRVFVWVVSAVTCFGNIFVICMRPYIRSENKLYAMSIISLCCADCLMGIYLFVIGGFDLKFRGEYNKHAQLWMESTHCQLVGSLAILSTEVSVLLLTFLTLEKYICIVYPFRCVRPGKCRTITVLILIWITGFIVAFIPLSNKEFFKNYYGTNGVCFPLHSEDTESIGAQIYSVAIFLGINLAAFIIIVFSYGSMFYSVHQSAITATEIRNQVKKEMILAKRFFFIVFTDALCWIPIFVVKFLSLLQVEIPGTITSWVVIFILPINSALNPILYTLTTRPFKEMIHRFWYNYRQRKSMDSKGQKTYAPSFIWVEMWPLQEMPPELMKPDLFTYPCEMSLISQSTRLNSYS
Procedure: Relaxin 2 signals through leucine-rich repeat-containing GPCRs (i.e LGR7 (RFXR1)). The bioactivity of wild-type relaxin peptides was determined based on the stimulation of adenylate cyclase activity in HEK293T cells stably expressing recombinant LGR7. Stable LGR7 expressing cells were maintained in Dulbecco's modified Eagle's medium/F-12 media supplemented with 200 ng/ml Zeocin (Invitrogen). A cyclic AMP responsive element driven luciferase (CRE-Luc) reporter line was generated by lentiviral transduction of these LGR7 expressing HEK293T cells with CRE-Luc lentivirus (Qiagen) and selected with puromycine (2 μg/mL) for two weeks. A reporter gene assay was used to detect cAMP levels and LGR7 activation by relaxin.
Assay detail: HEK293T cells expressing LGR7 and CRE-Luc are seeded at a density of 5×10^3 cells per well in 50 μL of Dulbecco's modified Eagle's medium/F-12 medium containing 10% FBS in 384-well solid bottom white plates. Cells are pre-incubated at 37° C. overnight. Different concentrations of relaxin peptides (from 0.01 nM to 1000 nM) were added in triplicate, incubated for 18 hours and luciferase activity was detected by adding […], of Bright Glo (Promega). Luminescence was recorded on Envision (Perkin Elmer). EC50 is calculated after non-linear curve fitting (see FIG. 2 for relaxin H2 dose response curve).

in vivo = conditions: female, Dahl salt sensitive (DSS), rat, plasma, sc, 0.3 mg/kg
Procedure: To ensure accurate determination of active relaxins, plasma samples collected at intervals between 0-24 hrs were analyzed using the cell-based reporter gene assay.
Bioanalysis: Serum samples were diluted (1:100) in 5 point serial dilutions (1:3) and measured RXFP1 luciferase reporter activity following assay protocol. Injected peptide were used as a standard to get standard curve and obtained parameters for Bottom, Top, EC50, Hill Slope. Obtained activity values (RLU) were selected (in the linear range of the standard curve) were used to calculate the concentrations in plasma (nmol/L) using equation from standard curve (Y=Bottom+(Top-Bottom)/(1+10̂((Log IC50−X)*Hill Slope))

[1] = Mouse in vivo PK study for half-life extension; design: species or system CD1 female mice; conditions: 0.3 mg/kg in NH4Ac buffer, plasma levels by cell-based reporter gene assay; for half-life: female, CD1, sc
Procedure: Lipid conjugated relaxin or other therapeutic agents were dosed in mice using sc, po, iv dosing. Plasma levels of TA were determined by LGR7 activation at different time points (e.g., i.v. PK 5 min, 0.5h, 1h, 2h 4h, 8h, 24h, 48h).

[2] = biological target: T2, LGR7 (relaxin 2 receptor), recombinant, stably expressed in HEK293T cells with a CRE-Luc reporter (UniProt Q9HBX9 1-757, limits assumed); assay: cell-based or functional assay
T2 sequence (looked up): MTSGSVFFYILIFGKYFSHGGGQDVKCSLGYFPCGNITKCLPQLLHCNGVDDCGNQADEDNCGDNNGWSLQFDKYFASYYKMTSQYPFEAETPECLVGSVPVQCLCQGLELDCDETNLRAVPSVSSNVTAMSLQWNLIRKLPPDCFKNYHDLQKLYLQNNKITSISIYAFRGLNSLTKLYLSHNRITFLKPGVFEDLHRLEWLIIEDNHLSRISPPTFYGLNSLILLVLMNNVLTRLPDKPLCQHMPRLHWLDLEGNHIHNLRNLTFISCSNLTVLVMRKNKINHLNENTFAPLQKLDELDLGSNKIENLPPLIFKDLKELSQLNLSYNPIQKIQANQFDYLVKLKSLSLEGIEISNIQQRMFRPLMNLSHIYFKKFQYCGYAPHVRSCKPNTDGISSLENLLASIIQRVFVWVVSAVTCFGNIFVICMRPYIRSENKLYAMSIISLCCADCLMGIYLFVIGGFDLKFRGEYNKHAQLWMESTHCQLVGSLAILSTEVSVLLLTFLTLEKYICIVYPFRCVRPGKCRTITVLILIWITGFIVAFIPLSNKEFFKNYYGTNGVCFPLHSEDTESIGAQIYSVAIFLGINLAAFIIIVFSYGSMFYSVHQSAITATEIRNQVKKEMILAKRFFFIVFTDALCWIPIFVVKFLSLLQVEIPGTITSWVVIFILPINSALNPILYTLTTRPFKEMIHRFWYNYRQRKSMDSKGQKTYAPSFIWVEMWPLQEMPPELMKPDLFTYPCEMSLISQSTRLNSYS

Molecule | Activity, fold drop compared to relaxin (LGR7) | half-life [1] [h] | Activity, fold drop compared to relaxin [2] [fold] | LGR7 EC50 (pM), CRE-Luc reporter in HEK293T cells expressing LGR7 [2] [pM] | further results
I: H-ASWMEEVIKLCGRELVRAQIAICGMSTWS / II: [pGlu]C(X1)YSALANKCCHVGCTKRSLARFC (disulfide I:11-II:11, I:23-II:24, II:10-II:15) [compound 5] | 12 | – | – | – | half-life (in vivo): 16 h
CC[C@H](C)[C@@H]1NC(=O)[C@H](C)NC(=O)[C@H]([C@@H](C)CC)NC(=O)[C@H](CCC(N)=O)NC(=O)[C@H](C)NC(=O)[C@H](CCCNC(=N)N)NC(=O)[C@H](C(C)C)NC(=O)[C@H](CC(C)C)NC(=O)[C@H](CCC(=O)O)NC(=O)[C@H](CCCNC(=N)N)NC(=O)CNC(=O)[C@@H](NC(=O)[C@H](CC(C)C)NC(=O)[C@H](CCCCN)NC(=O)[C@@H](NC(=O)[C@@H](NC(=O)[C@H](CCC(=O)O)NC(=O)[C@H](CCC(=O)O)NC(=O)[C@H](CCSC)NC(=O)[C@H](Cc2c[nH]c3ccccc23)NC(=O)[C@H](CO)NC(=O)[C@H](C)N)C(C)C)[C@@H](C)CC)CSSC[C@@H]2NC(=O)[C@@H](NC(=O)[C@H](CCCCN)NC(=O)[C@H](CC(N)=O)NC(=O)[C@H](C)NC(=O)[C@H](CC(C)C)NC(=O)[C@H](C)NC(=O)[C@H](CO)NC(=O)[C@H](Cc3ccc(O)cc3)NC(=O)[C@H](CSCC(=O)NCCOCCOCCOCCOCCOCCOCCOCCOCCC(=O)NCCCC[C@H](NC(=O)CCCCCCCCCCCCCCCCC(=O)O)C(=O)O)NC(=O)[C@@H](N)CCC(N)=O)CSSC[C@H](NC(=O)CNC(=O)[C@H](C(C)C)NC(=O)[C@H](Cc3c[nH]cn3)NC2=O)C(=O)N[C@@H]([C@@H](C)O)C(=O)N[C@@H](CCCCN)C(=O)N[C@@H](CCCNC(=N)N)C(=O)N[C@@H](CO)C(=O)N[C@@H](CC(C)C)C(=O)N[C@@H](C)C(=O)N[C@@H](CCCNC(=N)N)C(=O)N[C@@H](Cc2ccccc2)C(=O)N[C@H](C(=O)O)CSSC[C@@H](C(=O)NCC(=O)N[C@@H](CCSC)C(=O)N[C@@H](CO)C(=O)N[C@H](C(=O)N[C@@H](Cc2c[nH]c3ccccc23)C(=O)N[C@@H](CO)C(=O)O)[C@@H](C)O)NC1=O [compound 8] | 8 | 9.5 | – | – | –
I: ASWMEEVIKLCGRELVRAQIAICGMSTWS / II: QC(X3)YSALANKCCHVGCTKRSLARFC (disulfide I:11-II:11, I:23-II:24, II:10-II:15) [compound 9] | 10 | 3.4 | – | – | –
I: H-ASWMEEVIKLCGRELVRAQIAICGMSTWS / II: H-QC(X1)YSALANKCCHVGCTKRSLARFC (disulfide I:11-II:11, I:23-II:24, II:10-II:15) [compound 1] | 12 | 8 | – | – | EC50 (LGR7): 0.21 nM
I: ASWMEEVIKLCGRELVRAQIAICGMSTWS / II: QLYSALANKCCHC(X1)GCTKRSLARFC (disulfide I:11-II:11, I:23-II:24, II:10-II:15) [compound 2] | 15 | 8 | – | – | –
Relaxin-wt [reference compound] | – | – | – | – | Half-life (mouse, sc) [1]: 0.7 h
I: ASWMEEVIKLCGRELVRAQIAICGMSTWS / II: QC(X4)YSALANKCCHVGCTKRSLARFC (disulfide I:11-II:11, I:23-II:24, II:10-II:15) [compound 7] | 2 | 8 | – | – | –
I: ASWMEEVIKLCGRELVRAQIAICGMSTWS / II: QC(X2)YSALANKCCHVGCTKRSLARFC (disulfide I:11-II:11, I:23-II:24, II:10-II:15) [compound 3] | 12 | 6 | – | – | EC50 (LGR7): 0.21 nM
Relaxin-B:D1A (chain 1 ASWMEEVIKLCGRELVRAQIAICGMSTWS; chain 2 QLYSALANKCCHVGCTKRSLARFC) [unconjugated relaxin analog with D1A substitution in the B chain] | – | – | – | – | Half-life (mouse, sc) [1]: 0.8 h
Relaxin-B:D1A-A:Q1:V13C-FA2 (ligand, ends and bridges not checked) chain 1: ASWMEEVIKLCGRELVRAQIAICGMSTWS chain 2: QLYSALANKCCHC(FA2)GCTKRSLARFC | – | – | 15 | 250 | –
Relaxin-B:D1A-A:Q1-L2C-FA186 (ligand, ends and bridges not checked) chain 1: ASWMEEVIKLCGRELVRAQIAICGMSTWS chain 2: QC(FA186)YSALANKCCHVGCTKRSLARFC | – | – | 10 | 235 | –
Relaxin-B:D1A-A:Q1-L2C-ALK (ligand, ends and bridges not checked) chain 1: ASWMEEVIKLCGRELVRAQIAICGMSTWS chain 2: QC(ALK)YSALANKCCHVGCTKRSLARFC | – | – | 1 | 17 to 50 | –
Relaxin-B:D1A-A:Q1-L2C-FA183 (ligand, ends and bridges not checked) chain 1: ASWMEEVIKLCGRELVRAQIAICGMSTWS chain 2: QC(FA183)YSALANKCCHVGCTKRSLARFC | – | – | 8 | 174 | –
Relaxin-B:D1A (ligand, ends and bridges not checked; cysteine pairing not given here) chain 1: ASWMEEVIKLCGRELVRAQIAICGMSTWS chain 2: QLYSALANKCCHVGCTKRSLARFC | – | – | 1 | 45 | –
Relaxin-B:D1A-A:Q1-L2C-FA155 (ligand, ends and bridges not checked) chain 1: ASWMEEVIKLCGRELVRAQIAICGMSTWS chain 2: QC(FA155)YSALANKCCHVGCTKRSLARFC | – | – | 12 | 210 | –
Relaxin-B:D1A-A:Q1-L2C-FA182 (ligand, ends and bridges not checked) chain 1: ASWMEEVIKLCGRELVRAQIAICGMSTWS chain 2: QC(FA182)YSALANKCCHVGCTKRSLARFC | – | – | 2 | 51 | –
Relaxin-wt (ligand, ends and bridges not checked; cysteine pairing not given here) chain 1: DSWMEEVIKLCGRELVRAQIAICGMSTWS chain 2: QLYSALANKCCHVGCTKRSLARFC | – | – | 1 | ~40 | –
Relaxin-B:D1A-A:pQ1-L2C-FA2 (ligand, pyroglutamate (pQ) at position 1; Cys 2 S-alkylated with FA2 (from Br-FA2, Example 6)) chain 1: ASWMEEVIKLCGRELVRAQIAICGMSTWS chain 2: XCYSALANKCCHVGCTKRSLARFC | – | – | 12 | 350 | –
Relaxin-B:D1A-A:Q1-L2C-FA2 (ligand, ends and bridges not checked) chain 1: ASWMEEVIKLCGRELVRAQIAICGMSTWS chain 2: QC(FA2″)YSALANKCCHVGCTKRSLARFC | – | – | 12 | 210 | –
